Measurements published in patent US20250290928A1, “METHOD, KIT AND DEVICE FOR DETECTING EXTRACELLULAR VESICLES” (priority 2022, published 2025).
Several values for one entry are separate records, joined by “and”; a condition that tells them apart may be missing. Equal values may be shown once. *: point of attachment. 5FAM = O=C1OC2(c3ccc(O)cc3Oc3cc(O)ccc32)c2ccc(C(=O)*)cc21; TQ2 = quencher

Columns and labels:
Format in all cases: biochemical
[1] = target: T1, MMP14 in the A549-derived extracellular vesicles (Homo sapiens, UniProt P50281); test: Evaluation of MMP14 activity of A549-derived extracellular vesicles with 96-well plate; conditions: Example 10, buffer (3), reporter 5 μM, 37° C.
T1 construct: host or cells: A549 (purified exosomes)
Procedure: The MMP14 activity was evaluated with a 96-well plate (manufactured by Thermo Fisher Scientific Inc., model number: 137101). A fluorescence intensity was measured with a fluorescence plate reader (Synergy MX, manufactured by BioTek Instruments, Inc.) at […] every 5 min for 1 hour. For measurement wavelengths, an excitation wavelength of 485±20 nm and a fluorescence wavelength of 528±20 nm were used.
With regard to the COLO201-derived extracellular vesicles, the concentration of the solution was set to x1/10, and 3-fold serial dilution was performed to prepare standard samples with three concentrations.
50 μL of the MMP14 detection solution was added to 50 μL of each of the samples, a reaction was performed at 37° C., and MMP14 activity was evaluated.
(§1) The concentration of the solution is 20 μg/mL. […] The concentration of the solution was set to x1, and 10-fold serial dilution was performed to prepare standard samples with five concentrations.
(§2) The concentration of the solution is 10 μg/mL.
Evaluation was performed in the same manner as in Example 1 except that the reaction temperature was set to 23° C. ΔRFU was calculated by subtracting the measured value of the sample for BG measurement from the measured value of each of the samples.

[2] = target: T1, MMP14 in the A549-derived extracellular vesicles; test: Digital detection of A549-derived extracellular vesicles through MMP14 activity in wells (Simoa Discs); conditions: for Expected value λ / Number of positives / Positive ratio: 5 h
Procedure: as §1, §2

[3] = target: T2, MMP14 in the MDA-MB-231-derived extracellular vesicles (Homo sapiens, UniProt P50281); test: Digital detection through MMP14 activity of MDA-MB-231-derived extracellular vesicles captured on anti-CD9/CD63/CD81 antibody-immobilized particles; conditions: for Expected value λ / Number of positives / Positive ratio: 5 h; for Expected value λ (MMP14) / Number of positives (MMP14): Example 33, 30° C., 4 h
T2 construct: in terms of intact MMP14 with a molecular weight of 70 kDa
Procedure: as §2
For detection of MMP14 activity, 1 mM Custom #2 was diluted with the buffer (4) to prepare a MMP14 detection solution containing 10 μM Custom #2.
The number of the particles was increased 4-fold, and a reaction was allowed to proceed. However, the number and concentration of the particles used to fill the wells are finally the same as those in other Examples.
The concentration of the solution is 10 μg/mL. The solution was subjected to 3-fold serial dilution to prepare standard samples with seven concentrations.
For detection of MMP14 activity, 1 mM Custom #2 and a 100 µM resorufin β-D-galactopyranoside solution were diluted with the buffer (4) to prepare a MMP14 and CD9/CD63/CD81 cocktail detection solution (1) containing 10 μM Custom #2 and 5 μM resorufin β-D-galactopyranoside. In addition, the solution was diluted 2-fold with the buffer (4) to prepare a detection solution (2). Nonfluorescent resorufin β-D-galactopyranoside is degraded by β-galactosidase to produce fluorescent resorufin. In this case, the maximum wavelengths of excitation and fluorescence of resorufin are 570 nm and 585 nm, respectively.
In addition, an antibody-immobilized particle solution was prepared and stored at 4° C. until use, in the same manner as in Example 28 except that Magnosphere MS300/Carboxyl (manufactured by JSR Corporation) (hereinafter abbreviated as “MS300C”) was used as magnetic particles.
For detection of MMP14 activity, 1 mM Custom #2 was diluted with the buffer (4) to prepare a MMP14 detection solution containing 5 μM Custom #2. In addition, 1 mM Custom #2T was diluted with the buffer (4) to prepare a MMP14 detection solution containing 2.5 μM Custom #2T.
An antibody-immobilized particle solution was prepared and stored at 4° C. until use, in the same manner as in Example 28 except that: MS300C was used as magnetic particles; and blocking treatment was performed at 4° C. or room temperature through use of Blockmaster CE210 or CE510 (manufactured by Medical & Biological Laboratories Co., Ltd.) instead of Bead Blocking Buffer (manufactured by Quanterix Corporation).
For detection of MMP14 activity, 1 mM Custom #2 and 1 mM Custom #2T were diluted with the buffer (4) to prepare a MMP14 detection solution containing 5 μM Custom #2 and 2.5 μM Custom #2T serving as the reporter molecules in the same system. […]

[4] = target: T2, MMP14 in the MDA-MB-231-derived extracellular vesicles; test: Digital detection through MMP14 activity of MDA-MB-231-derived extracellular vesicles captured on Tim4-immobilized magnetic particles; conditions: Table 56, MB231 Present, 24 hours at 23° C.
[5] = Example 27, 23° C., EV 0 (free of extracellular vesicles)
[6] = Example 27, 23° C., EV 0.01 a.u.
[7] = Example 27, 23° C., EV 0.1 a.u.
[8] = Example 27, reporter 10 μM, 23° C., EV 1 a.u. (x1=5 μg/mL)
[9] = Example 28, 37° C., EV 0 (BG, free of extracellular vesicles)
[10] = Example 28, 37° C., EV 1 a.u. (sample 10 μg/mL)
[11] = Example 31, 4-fold number of particles, 37° C., EV 1 a.u., single image
[12] = Example 31, 37° C., EV 1 a.u., sum of the two images
[13] = Particle MS300C, MB231 Absent, 24 hours of reaction
[14] = Particle MS300C, MB231 Present, 24 hours of reaction
[15] = Particle Simoa, MB231 Absent, 24 hours of reaction
[16] = Particle Simoa, MB231 Present, 24 hours of reaction

Which results are given for “[5-FAM]GGPLGLAGGK(TQ2)[OH] (5FAM-GGPLGLAGGK(TQ2)-OH) [Custom #2]”?
fluorescence intensity at the same extracellular vesicle concentration [1]: higher than the fluorescence intensity from Custom #1; Extracellular vesicle concentration ([2]; Example 27): 1.1×10^9 /μg of protein; Expected value λ [2, 5]: 0.000023; Number of positives [2, 5]: 2; Positive ratio [2, 5]: 0.000023; Expected value λ [2, 6]: 0.004117; Number of positives [2, 6]: 357; Positive ratio [2, 6]: 0.004109; Expected value λ [2, 7]: 0.03235; Number of positives [2, 7]: 2,766; Positive ratio [2, 7]: 0.03184; λ at x1 in the approximation of FIG. 58 ([2]; Example 27, 5 h): 0.2767; concentration of the extracellular vesicles that can be detected based on the MMP14 activity ([2]; Example 27, reaction solution 5 μg of protein/mL, 50 fL): 5.5e+09 mL⁻¹; Expected value λ [2, 8]: 0.2767; Number of positives [2, 8]: 20,982; Positive ratio [2, 8]: 0.2417; Extracellular vesicle concentration ([3]; Example 28, 1 μg of protein, 5.0×10^5 particles): 8.0×10^4 extracellular vesicles/μg of protein; Expected value λ [3, 9]: 0.000493; Number of positives [3, 9]: 1; Positive ratio [3, 9]: 0.000493; Expected value λ [3, 10]: 0.1599; Number of positives [3, 10]: 338; Positive ratio [3, 10]: 0.1478; expected value Δλ per particle (value obtained by subtracting BG) ([3]; Example 28, 5 h): 0.1594; Extracellular vesicle concentration ([3]; Example 31, 0.5 μg of protein, 2.0×10^6 particles): 1.8×10^5 extracellular vesicles/μg of protein; Expected value λ [3, 11]: 0.04458 and 0.04511; Number of positives [3, 11]: 402 and 410; Positive ratio [3, 11]: 0.0436 and 0.04411; Expected value λ [3, 12]: 0.04484; Number of positives [3, 12]: 812; Positive ratio [3, 12]: 0.04386; expected value Δλ per particle (value obtained by subtracting BG) ([3]; Example 31, 5 h, sum of the two images): 0.04435; Expected value λ (MMP14) ([3]; EV 0 (BG)): 0.00428; Number of positives (MMP14) ([3]; EV 0 (BG)): 9; Expected value λ (MMP14) ([3]; EV X1 (sample 10 μg/mL)): 0.139; Number of positives (MMP14) ([3]; EV X1 (sample 10 μg/mL)): 298; Expected value λ (MMP14) ([3]; EV X1/3): 0.0829; Number of positives (MMP14) ([3]; EV X1/3): 218; Expected value λ (MMP14) ([3]; EV X1/9): 0.0569; Number of positives (MMP14) ([3]; EV X1/9): 162; Expected value λ (MMP14) ([3]; EV X1/27): 0.0315; Number of positives (MMP14) ([3]; EV X1/27): 78; Expected value λ (MMP14) ([3]; EV X1/81): 0.0118; Number of positives (MMP14) ([3]; EV X1/81): 19; Expected value λ (MMP14) ([3]; EV X1/243): 0.0108; Number of positives (MMP14) ([3]; EV X1/243): 20; Expected value λ (MMP14) ([3]; EV X1/729): 0.0120; Number of positives (MMP14) ([3]; EV X1/729): 22; extracellular vesicles detected with MMP14 present in wells (particles) containing extracellular vesicles detected with at least any one of CD9, CD63, and CD81 ([3]; Example 33, concentration [a.u.] of x1, multiplex with resorufin β-D-galactopyranoside): 99.7%; Extracellular vesicle concentration [3, 13]: 0.0113 ×10^5/μg of protein; Particle Expected value λ [3, 13]: 0.00226; Extracellular vesicle concentration [3, 14]: 1.4495 ×10^5/μg of protein; Particle Expected value λ [3, 14]: 0.2899; Extracellular vesicle concentration [3, 15]: 0.0061 ×10^5/μg of protein; Particle Expected value λ [3, 15]: 0.00122; Extracellular vesicle concentration [3, 16]: 1.5232 ×10^5/μg of protein; Particle Expected value λ [3, 16]: 0.3046; Particle Number of positives ([4]; Particle MS300C): 1,288; Particle Number of positives ([4]; Particle Simoa): 1,234
